# Test results from IntAct's records for PubMed 28490631.
# B1: Triggering receptor expressed on myeloid cells 2 (Homo sapiens), Q9NZC2 (parent)
# chain: MEPLRLLILLFVTELSGAHNTTVFQGVAGQSLQVSCPYDSMKHWGRRKAWCRQLGEKGPCQRVVSTHNLWLLSFLRRWNGSTAITDDTLGGTLTITLRNLQPHDAGLYQCQSLHGSEADTLRKVLVEVLADPLDHRDAGDLWFPGESESFEDAHVEHSISRSLLEGEIPFPPTSILLLLACIFLIKILAASALWAAAWHGQKPGTHPPSELDCGHDPGYQLQTLPGLRDT
# Variants of: B1
# Settings: with tyobp_human TYROBP
row,effect of a mutation on the interaction,Variant
1,increasing interaction strength,T66M
2,with no effect,R47H

# Variants of: B1
# Settings: with tyobp_human TYROBP
# Remark: another data set of the same source
row,effect of a mutation on the interaction,Variant
1,with no effect,T66M
2,with no effect,S116C
